Reference: US20220289795, “EFFICIENT METHOD FOR PREPARING PPR PROTEIN AND USE OF THE SAME” (EditForce, Inc., published 2022)

Key:
[1] = tested on: v2_PPR1 (Artificial Sequence); experiment: ELONA
[2] = tested on: v2_PPR2 (Artificial Sequence); experiment: ELONA
[3] = tested on: v2_PPR5 (Artificial Sequence); experiment: ELONA
[4] = tested on: v2_PPR3 (Artificial Sequence); experiment: ELONA
[5] = target: T1, v3.1_PPR7 (Artificial Sequence); experiment: ELONA; RPB-ELISA; conditions: tags: luciferase fusion; label: 5'-biotin
T1 chain: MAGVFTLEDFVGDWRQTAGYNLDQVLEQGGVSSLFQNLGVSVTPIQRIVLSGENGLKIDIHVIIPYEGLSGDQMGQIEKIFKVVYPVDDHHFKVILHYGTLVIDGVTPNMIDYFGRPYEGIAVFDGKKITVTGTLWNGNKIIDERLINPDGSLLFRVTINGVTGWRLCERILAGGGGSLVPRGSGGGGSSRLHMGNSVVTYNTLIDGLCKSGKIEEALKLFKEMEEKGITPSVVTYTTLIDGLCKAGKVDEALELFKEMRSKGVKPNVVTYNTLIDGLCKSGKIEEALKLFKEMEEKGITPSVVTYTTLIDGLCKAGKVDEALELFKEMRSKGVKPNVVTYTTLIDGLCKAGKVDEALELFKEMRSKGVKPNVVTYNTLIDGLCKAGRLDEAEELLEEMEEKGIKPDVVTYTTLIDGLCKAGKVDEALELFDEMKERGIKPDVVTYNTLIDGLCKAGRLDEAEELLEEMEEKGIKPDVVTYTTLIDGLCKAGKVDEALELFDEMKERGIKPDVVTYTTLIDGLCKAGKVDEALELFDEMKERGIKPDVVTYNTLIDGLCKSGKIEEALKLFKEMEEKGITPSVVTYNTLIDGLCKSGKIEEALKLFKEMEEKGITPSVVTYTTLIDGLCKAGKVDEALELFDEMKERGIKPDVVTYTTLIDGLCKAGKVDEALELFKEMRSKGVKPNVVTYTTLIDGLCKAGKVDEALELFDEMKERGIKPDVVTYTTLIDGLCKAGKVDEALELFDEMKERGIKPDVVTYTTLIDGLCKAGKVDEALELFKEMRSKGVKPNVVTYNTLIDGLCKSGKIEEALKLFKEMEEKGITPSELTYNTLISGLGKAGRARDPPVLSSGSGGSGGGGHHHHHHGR

[6] = target: T2, NL_v2_PPR7 (Artificial Sequence); experiment: ELONA; RPB-ELISA; conditions: tags: N-term luciferase, C-term 6xHis; label: 5'-biotin
T2 chain: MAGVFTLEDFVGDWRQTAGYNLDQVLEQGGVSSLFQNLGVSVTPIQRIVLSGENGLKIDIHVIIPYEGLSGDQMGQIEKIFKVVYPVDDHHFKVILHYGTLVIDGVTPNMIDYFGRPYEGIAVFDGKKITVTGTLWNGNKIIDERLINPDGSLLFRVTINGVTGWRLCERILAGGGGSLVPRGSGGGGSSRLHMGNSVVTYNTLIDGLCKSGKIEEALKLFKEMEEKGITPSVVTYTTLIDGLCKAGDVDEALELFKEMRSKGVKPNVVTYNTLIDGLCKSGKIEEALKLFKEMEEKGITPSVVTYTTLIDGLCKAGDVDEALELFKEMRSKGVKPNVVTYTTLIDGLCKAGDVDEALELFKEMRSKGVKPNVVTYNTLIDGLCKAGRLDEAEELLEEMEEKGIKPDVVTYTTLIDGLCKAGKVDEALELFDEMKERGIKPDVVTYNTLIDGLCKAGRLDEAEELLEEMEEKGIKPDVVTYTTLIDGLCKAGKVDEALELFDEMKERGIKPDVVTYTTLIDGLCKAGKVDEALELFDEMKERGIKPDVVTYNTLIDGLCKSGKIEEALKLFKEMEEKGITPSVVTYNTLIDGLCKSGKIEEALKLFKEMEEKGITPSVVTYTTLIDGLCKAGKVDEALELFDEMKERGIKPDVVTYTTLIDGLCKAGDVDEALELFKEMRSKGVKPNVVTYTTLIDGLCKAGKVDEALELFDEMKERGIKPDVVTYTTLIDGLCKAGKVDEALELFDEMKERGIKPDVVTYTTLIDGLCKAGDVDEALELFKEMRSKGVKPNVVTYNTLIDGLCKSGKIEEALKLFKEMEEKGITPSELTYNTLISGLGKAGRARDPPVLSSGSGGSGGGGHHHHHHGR

[7] = target: T3, v3.1_PPR9 (Artificial Sequence); experiment: ELONA; RPB-ELISA; conditions: tags: luciferase fusion; label: 5'-biotin
T3 chain: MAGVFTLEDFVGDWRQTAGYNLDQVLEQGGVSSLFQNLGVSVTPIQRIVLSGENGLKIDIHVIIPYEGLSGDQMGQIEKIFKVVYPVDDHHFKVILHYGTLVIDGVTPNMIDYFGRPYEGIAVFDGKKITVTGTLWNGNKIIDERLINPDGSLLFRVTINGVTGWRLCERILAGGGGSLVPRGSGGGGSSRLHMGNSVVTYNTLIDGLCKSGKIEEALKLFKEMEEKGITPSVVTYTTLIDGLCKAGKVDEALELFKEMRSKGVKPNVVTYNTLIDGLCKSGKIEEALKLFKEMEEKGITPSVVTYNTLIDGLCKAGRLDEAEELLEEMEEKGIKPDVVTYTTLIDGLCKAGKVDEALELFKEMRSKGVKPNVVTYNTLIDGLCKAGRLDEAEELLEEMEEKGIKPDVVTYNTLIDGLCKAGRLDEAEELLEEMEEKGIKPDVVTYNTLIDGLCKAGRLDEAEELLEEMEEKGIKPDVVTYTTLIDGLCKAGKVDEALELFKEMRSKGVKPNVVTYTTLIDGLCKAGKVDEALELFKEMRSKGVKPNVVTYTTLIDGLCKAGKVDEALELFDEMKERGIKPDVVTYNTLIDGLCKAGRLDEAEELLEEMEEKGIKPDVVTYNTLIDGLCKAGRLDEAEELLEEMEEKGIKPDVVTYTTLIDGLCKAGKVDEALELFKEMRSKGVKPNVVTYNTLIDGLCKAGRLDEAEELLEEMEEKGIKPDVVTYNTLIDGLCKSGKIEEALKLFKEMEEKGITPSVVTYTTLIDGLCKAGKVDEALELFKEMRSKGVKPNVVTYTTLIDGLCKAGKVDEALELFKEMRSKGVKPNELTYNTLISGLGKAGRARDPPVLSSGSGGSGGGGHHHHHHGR

[8] = target: T4, NL_v2_PPR9 (Artificial Sequence); experiment: ELONA; RPB-ELISA; conditions: tags: N-term luciferase, C-term 6xHis; label: 5'-biotin
T4 chain: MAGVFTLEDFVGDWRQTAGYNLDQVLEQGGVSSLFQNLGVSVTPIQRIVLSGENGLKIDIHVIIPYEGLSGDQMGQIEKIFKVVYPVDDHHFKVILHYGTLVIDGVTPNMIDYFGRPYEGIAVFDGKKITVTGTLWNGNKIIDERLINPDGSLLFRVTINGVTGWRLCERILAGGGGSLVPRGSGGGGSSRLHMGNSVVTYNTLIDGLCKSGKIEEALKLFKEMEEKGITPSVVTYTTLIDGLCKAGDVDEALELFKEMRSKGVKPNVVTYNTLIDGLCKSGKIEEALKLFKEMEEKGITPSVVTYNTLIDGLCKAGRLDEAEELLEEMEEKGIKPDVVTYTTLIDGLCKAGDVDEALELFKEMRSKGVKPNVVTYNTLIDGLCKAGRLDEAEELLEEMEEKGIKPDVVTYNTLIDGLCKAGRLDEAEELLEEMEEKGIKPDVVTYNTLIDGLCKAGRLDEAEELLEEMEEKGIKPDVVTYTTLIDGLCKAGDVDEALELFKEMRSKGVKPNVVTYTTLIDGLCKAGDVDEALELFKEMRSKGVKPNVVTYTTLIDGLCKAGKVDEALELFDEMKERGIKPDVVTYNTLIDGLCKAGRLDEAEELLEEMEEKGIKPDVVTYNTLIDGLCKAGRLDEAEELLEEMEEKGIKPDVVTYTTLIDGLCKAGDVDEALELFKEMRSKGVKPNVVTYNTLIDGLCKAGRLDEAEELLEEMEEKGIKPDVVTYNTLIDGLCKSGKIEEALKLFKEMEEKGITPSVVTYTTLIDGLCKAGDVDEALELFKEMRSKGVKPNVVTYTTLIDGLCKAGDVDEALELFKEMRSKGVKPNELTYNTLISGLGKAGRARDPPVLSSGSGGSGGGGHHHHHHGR

[9] = target: T5, v3.1_PPR6 (Artificial Sequence); experiment: ELONA; RPB-ELISA; conditions: tags: luciferase fusion; label: 5'-biotin
T5 chain: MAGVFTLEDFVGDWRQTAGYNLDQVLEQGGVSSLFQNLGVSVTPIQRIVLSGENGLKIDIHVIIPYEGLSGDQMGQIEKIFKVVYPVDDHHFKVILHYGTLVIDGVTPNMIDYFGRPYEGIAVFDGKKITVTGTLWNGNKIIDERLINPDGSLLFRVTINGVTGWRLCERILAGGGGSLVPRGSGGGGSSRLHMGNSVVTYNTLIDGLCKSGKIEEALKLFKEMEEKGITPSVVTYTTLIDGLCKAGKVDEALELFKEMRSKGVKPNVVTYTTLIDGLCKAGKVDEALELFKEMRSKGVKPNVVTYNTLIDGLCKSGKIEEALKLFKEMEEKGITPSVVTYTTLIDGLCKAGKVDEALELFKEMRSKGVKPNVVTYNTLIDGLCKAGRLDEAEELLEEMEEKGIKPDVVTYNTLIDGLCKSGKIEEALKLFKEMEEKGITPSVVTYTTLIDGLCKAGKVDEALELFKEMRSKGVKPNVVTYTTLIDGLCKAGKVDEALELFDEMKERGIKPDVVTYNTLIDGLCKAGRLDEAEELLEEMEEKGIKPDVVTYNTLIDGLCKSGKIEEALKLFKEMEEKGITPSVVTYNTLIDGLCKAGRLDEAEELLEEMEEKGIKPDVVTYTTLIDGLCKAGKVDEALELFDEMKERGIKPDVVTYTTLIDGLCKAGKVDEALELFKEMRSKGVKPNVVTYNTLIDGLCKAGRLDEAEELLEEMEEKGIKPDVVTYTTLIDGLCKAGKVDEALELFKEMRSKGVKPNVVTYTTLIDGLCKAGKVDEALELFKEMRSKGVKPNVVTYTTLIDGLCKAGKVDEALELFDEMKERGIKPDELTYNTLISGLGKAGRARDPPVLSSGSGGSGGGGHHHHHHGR

GACAUGCCAACAUCAGUCUGAUAAGGACUG [RNA_6] showed a binding signal (log2 luminescence) ([1]; off-target, on-target 25.98) of 14.4.

GAGAGGAAGCCUGAGAGU [T_2 (in RNA_2)] gave a binding signal ([2]; RPB-ELISA) of 5.7e+07 luminescence.

GGCAAAAAGAUCACUGUA [T_5 (in RNA_5)] was tested, and the binding signal ([3]; RPB-ELISA) was 6e+07 luminescence.

In the case of GAAUGAACUCUUCCGGGA [T_1 (in RNA_1)], the binding signal (log2 luminescence) ([3]; off-target, on-target 25.83) is reported as 18.1, the binding signal ([1]; RPB-ELISA) is reported as 6.6e+07 luminescence and the binding signal (log2 luminescence) ([2]; off-target) is reported as 17. It also gave a binding signal (log2 luminescence) ([4]; off-target, on-target 25.00) of 16.7.

With GACAUGCCACAAUGUGGCCGAGGACGACUG [RNA_7] the binding signal (log2 luminescence) ([2]; off-target cross-binding) was 24.8.

CUGAGUCAUAACCAGCCU [T_3 (in RNA_3)] gave a binding signal ([4]; RPB-ELISA) of 3.3e+07 luminescence.

For GACAUGCCACAAUGUGGCCGAGGACGACUG (ssRNA) [RNA_7], the binding signal [5] was 3.4e+07 luminescence and the binding signal [6] was 1.9e+07 luminescence.

GACAUGCCACUAUUUAAGUUAUCAAGACUG (ssRNA) [RNA_9] gave a binding signal [7] of 2.2e+06 luminescence and a binding signal [8] of 4.7e+07 luminescence.

GACAUGCCAACAUCAGUCUGAUAAGGACUG (ssRNA) [RNA_6] gave a binding signal [9] of 6.1e+06 luminescence.
